Source: patent US6432692B1, “Sensitive bioassay for detecting agonists of the aryl hydrocarbon receptor” (Wisconsin Alumni Research Foundation, priority 1999, dated 2002)

Tested on: AHR
Assay: Coimmunoprecipitation of 35S-labeled AHR with T7-tagged ARA9 or FKBP52
Type: binding
Settings: T7-agarose coimmunoprecipitation, reticulocyte lysate AHR
Experimental: Bacterial Expression: The ARA9 and FKBP52 proteins tagged with the T7 peptide (PL799, PL1004, PL1005 and PL947) were expressed in BL21(DE3) bacteria (Novagen). The T7 tag is an 11 amino acid peptide, MASMTGGQQMG, that facilitates detection and purification of the recombinant protein using anti-T7 antibodies (Novagen). Saturated cultures were used to inoculate LB growth media supplemented with 0.4 mM IPTG and 100 μg/ml ampicillin. The bacteria were allowed to grow an additional 4 hours at 37° C and pelleted by centrifugation at 5000×g for 5 min. The pellet was resuspended in bind/wash buffer (4.29 mM Na2HPO4, 1.47 mM KH2PO4, 2.7 mM KCl, 0.137 M NaCl, 0.1% (v/v) Tween and 0.002% (w/v) NaN3). The resulting mixture was disrupted using four ×15 second sonic pulses on ice. Insoluble debris was removed by centrifugation at 12,000×g for 20 minutes at 4° C. The supernatant was passed through a […] filter and protein concentrations determined by the BCA protein assay (Pierce, Rockford Ill.). […] The complexes were then precipitated and analyzed by SDS-PAGE and autoradiography.
Specificity of ARA9 for AHR: The structural similarity between ARA9 and FKBP52 led us to compare the relative capacity of these two factors to bind AHR. […] The AHR-ARA9 or AHR-FKBP52 associations were determined by coimmunoprecipitation with T7-agarose.

B1: ARA9: 37 kDa Ah receptor-associated protein, immunophilin structurally similar to FKBP52 (protein, UniProt O08915 1-330, looked up)
AH receptor-interacting …: MADLIARLREDGIQKRVIQEGRGELPDFQDGTKATFHFRTLHSDNEGSVIDDSRTRGKPMELIVGKKFKLPVWETIVCTMREGEIAQFLCDIKHVVLYPLVAKSLRNIAEGKDPLEGQRHCCGIAQMHEHSSLGHADLDALQQNPQPLIFHIEMLKVESPGTYQQDPWAMTDEEKAKAVPVIHQEGNRLYREGQVKEAAAKYYDAIACLKNLQMKEQPGSPDWIQLDLQITPLLLNYCQCKLVAQEYYEVLDHCSSILNKYDDNVKAYFKRGKAHAAVWNAQEAQADFAKVLELDPALAPVVSRELRALETRIRQKDEEDKARFRGIFSH
- efficiency at precipitating AHR relative to FKBP52: approximately four times more efficient
